B1: HCB2-1c (antibody, V domains shown)
VH: EVQLVQSGAEVKKPGASVKVACKASGYTFTDYYIHWVRQAPGQGLEWMGIVNANGGDTNYAQQFQGRVTMTRDTSTSTVYLELTSLRSDDTAVYYCARDWYYYSSGSFPFDYWGQGTLVSVSS
VL: AIQMTQSPSSLSASVGDRVSITCRASQSISSFLNWYQQRPGKAPELLIYGASSLQSGVPSRFSGSGSGTDFTLTISSLQPEDFATYYCQQSYSIPITFGQGTQLEIK
B2: HCB2-1d (antibody, V domains shown)
VH: EVQLVQSGAEVKKPGASVKVACKASGYTFTDYYIHWVRQAPGQGLEWMGIVNANGGDTNYAQQFQGRVTMTRDTSTSTVYLELTSLRSDDTAVYYCARDWYYYSSGSFPFDYWGQGTLVSVSS
VL: DVQMTQSPSSLSASVGDRVSITCKASQDVSIAVAWYQQKPGKAPKLLIYSASYRYTGVPDRFSGSGSGTDFTLTISSLQPEDFAVYYCQQHYITPLTFGAGTKLEIK
B3: HCB2-2 (antibody, V domains shown)
VH: QVQLVQSGAEVKKPGASVKVSCKASGYIFNTYGISWVRQAPGQGLEWMGWTNVYNSNTDSGHKFQGRVTMTTDTSTDTAYMELRSLRSDDTAVYYCARDPGSAIFDMWGQGTMVTVSS
VL: DVQMTQSPSSLSASVGDRVSITCRASQSISSFLNWYQQRPGKAPELLIYGASSLQSGVPSRFSGSGSGTDFTLTISSLQPEDFATYYCQQSYSIPITFGQGTRLEIK
notes: also called HCB2-2_HC; HCB2-2_LC
B4: HCB2-4 (antibody, V domains shown)
VH: QVELQESGPGLVKPSETLSLTCTVSGDAIKDKYWSWVRQPPGKGLEWIGYISNSGSTNYNPSLKSRVSLSVDTSKNQFSLKQTSVTAADTATYYCARGSGYTAFDIWGQGTMVTVSS
VL: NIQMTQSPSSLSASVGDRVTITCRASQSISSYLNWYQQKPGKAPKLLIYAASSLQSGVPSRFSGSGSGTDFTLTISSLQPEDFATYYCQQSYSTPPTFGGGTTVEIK
notes: also called HCB2-4_HC; HCB2-4_LC
B5: HCB2-13 (antibody, V domains shown)
VH: QVQLVESGGGLVQPGGSLRLSCAASGFTLSSYAMSWVRQAPGEGLEWVSSINSGGSTYYAGSVRGRFTISRDNSKNTLYLQMNSLRAEDTAVYYCAKAKSYSSDLDHWGQGTTVTVSS
VL: DVVMTQSPSSLSVSAGEKVTMSCKSSQSLLNSGNQKTYLAWYQQKPGQPPKLLIYGASTRESGVPDRFTGSGSGTDFTLTISSVQAEDLAVYYCQNDHSYPFTFGSGTKVEIKR
notes: also called HCB2-13_HC; HCB2-13_LC
B6: B2-1 (antibody, V domains shown)
VH: EVQLVQSGAEVKKPGSSVKVSCKASGGTFSSYAISWVRQAPGQGLEWMGGIIPIFGTANYAQKFQGRVTITADKSTSTAYMELSSLRSEDTAVYYCARGNQGDTAFDIWGQGTTVIVSS
VL: QSALNQPASVSGSPGQSITISCTGTSSDVGGYNYVSWYQQHPGKAPKLMIYDVSNRPSGVSNRFSGSKSGNTASLTISGLQAEDEADYYCSSYTSSSTPYVFGTGTKVTVL
notes: also called B2-1_HC; B2-1_LC
B7: B2-2 (antibody, V domains shown)
VH: QVQLVQSGAEVKKPGASVKVSCKASGYTFSDYGFSWVRQAPGQGLEWMGWISGYNGNTNYAQKFQGRVTMTIDASTSTAYMELRSLKSDDTAVYYCARLLLGYYGMDVWGQGTTVTVSS
VL: DIVMTQSPSSLSASVGDRVTLTCRASQSIGNYLNWYQQKPGKAPNLLIYAASSLQSGVPSRFSGSGSGTDFTLTISSLQPEDFATYYCQQSFSIPPITFGQGTRLEIK
notes: also called B2-2_HC; B2-2_LC
B8: B2-3 (antibody, V domains shown)
VH: QVQLVQSGAEVKKPGASVKVSCRTSGYTFSSYGISWVRQAPGQGLEWMGWISGNTGNTKYTPKLQGRVTMTTDTSTSTAYMELRSLRSDDTAVYYCARDRGIAAGRAFDIWGQGTMVTVSS
VL: QPVLTQPPSASGTPGQRVTISCSGSSSNIGTNPVNWYQQVPGTGPKLLIYNNNQWPSGVPDRFSGSKSATSASLAIYGLQSGDEAHYYCSSWDDSLSAWVFGGGTKVTVL
notes: also called B2-3_HC; B2-3_LC
B9: B2-4 (antibody, V domains shown)
VH: QVQLVQSGPTVRKPGASVRVSCKASGYPFTSNGMSWVRQAPGQGLEWMGWISTNSGNTNYAQKFQGRVTLTTDTSSTTTYLDLRSLTSDDTAIYYCARDVQYRMDVWGQGTTVTVSS
VL: QSVLTQPPSASGTPGQRVTISCSGSRSNIGSNPVNWYQHLPGTAPKLLVYSNNRRPSGVPDRFSGSKSGTSASLSISGLQSEDEGVYYCAAWDDNVHGVFGGGTKVTVL
notes: also called B2-4_HC; B2-4_LC
B10: B2-9 (antibody, human IgG1, V domains shown)
VH: QVQLVQSGAEVKKPGASVKVSCKASGYTFTSYGISWVRQAPGQGLEWMGWISAYNGNTNYAQKLQGRVTMTTDTSTSTAYMELRSLRSDDTAVYYCARDGYGMDVWGQGTTVTVSS
VL: QSPSSLSASVGDRVTITCRTSHTVNSYLNWYQQEPGKAPKLLIYAASNLQSGVPSRFSGSGSGTDFSLTIHNLQPEDFATYYCQQSYRTPLTFGQGTKVDIK
notes: also called B2-9_HC; B2-9_LC
B11: B2-11 (antibody, V domains shown)
VH: QVQLQQSGPGLVKPSQTLSLTCAISGDSVSSNSAAWNWIRQSPSRGLEWLGRTYYRSKWYNDYAVSVKSRITINPDTSKNQFSLQLNSVTPEDTAVYYCARQDESAADDAFDIWGQGTLVIVSS
VL: QSVLTQPPSASGTPGQRVTISCSGSKSNVGNNFVHWYQQLPGTAPKLLLYSNLERSSGVPERFSGSKSGTSAYLAISGLRSDDEADYYCAAWDDSLPGWVFGGGTKLTVL
notes: also called B2-11_HC; B2-11_LC
B12: B2-13 (antibody, V domains shown)
VH: QVQLVQSGAEVKKPGSSVKVSCKASGGTFSSYAISWVRQAPGQGLEWMGGIIPIFGTANYAQKFQGRVTITADESTSTAYMELSSLRSEDTAVYYCARSDYGDSYFDYWGQGTLVSVSS
VL: QAVVTQPASVSGSPGQSVSISCTGTSSDVGGFNYVSWYQQHPGKAPKLMIYDVSNRPSGVSNRFSGSKSGNTASLTISGLQAEDEADYYCSSYTSSTAPYVFGTGTKVTVL
notes: also called B2-13_HC; B2-13_LC
B13: B2-14 (antibody, V domains shown)
VH: QVQLVQSGAEVKKPGSSVKVSCKASGGTFSSYAISWVRQAPGQGLEWMGGIIPIFGTANYAQKFQGRVTITADESTSTAYMELSSLRSEDTAVYYCARASMVETYFDYWGQGTMVTVSS
VL: QSVLTQPRSVSGSPGQSVTISCTGTSSDVGGYNYVSWYQQHPGKAPKLMISEVSKRPSGVPDRFSGSKSGNTASLTVSGLQAEDEADYYCSSYAGGYTPYVFGTGTKVTVL
notes: also called B2-14_HC; B2-14_LC
B14: B2-22 (antibody, V domains shown)
VH: QVQLVQSGAEVKKPGASVKVSCKASGYTFTSYGISWVRQAPGQGLEWMGWISAYNGNTNYAQKLQGRVTMTTDTSTSTAYMELRSLRSDDTAVYYCARVGSYGDYWGQGTLVTVSS
VL: QSPSSLSASVGDRVTITCRASQGISNYLAWYQQKPGKVPKLLIYAASTLQSGVPSRFSGSGSGTDFTLTISSLQPEDVATYYCQKYNSAPLTFGGGTKLEIK
notes: also called B2-22_HC; B2-22_LC
B15: B2-23 (antibody, V domains shown)
VH: QVQLVQSGAEVKKPGASVKVSCKASGYTFTHSYIHWVRQAPGQGLEWMGVINPVGGSTTYAQRFQGRVTMTRDTSTSTVYMELSSLRSEDTAVYYCARAGGDGYNPYFDYWGQGTLVTVSS
VL: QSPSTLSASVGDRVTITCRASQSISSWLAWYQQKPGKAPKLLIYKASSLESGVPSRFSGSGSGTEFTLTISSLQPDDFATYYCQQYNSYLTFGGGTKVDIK
notes: also called B2-23_HC; B2-23_LC
B16: B2-26 (antibody, V domains shown)
VH: QVQLVQSGAEVKKPGASVKVSCKASGYTFTSYGISWVRQAPGQGLEWMGWISAYNGNTNYAQKLQGRVTMTTDTSTSTAYMELRSLRSDDTAVYYCARDRGGWFDPWGQGTLVIVSS
VL: QSPSSLSASVGDRVTITCRASQSISNFVNWYQQKPGEVPKLLIYGASSLQSGVPSRFSGSGSGTDFTLTISSLQPEDFATYYCQQGYSVPLTFGGGTTVDIK
notes: also called B2-26_HC; B2-26_LC
B17: B2-27 (antibody, human IgG1, V domains shown)
VH: QVQLVQSGAEVKKPGSSVKVSCKASGGTFSSYAISWVRQAPGQGLEWMGGIIPIFGTANYAQKFQGRVTITADESTSTAYMELSSLRSEDTAVYYCARESYSSSSFDYWGQGTTVSVSS
VL: QPVLTQPASVSGSPGQSITISCTGTSSDVGGYNYVSWYQQHPGKAPKLMIYDVSNRPSGVSNRFSGSKSGNSASLTISGLQAEDEADYYCSSYTSSSTPYVFGTGTKVTVL
notes: also called B2-27_HC; B2-27_LC
B18: B2-30 (antibody, human IgG1, V domains shown)
VH: QVQLVESGGGLVQPGGSLRLSCAASGFTFSSYDMHWVRQATGKGLEWVSAIGTAGDTYYPGSVKGRFTISRENAKNSLYLQMNSLRAGDTAVYYCARAKEYCSGGSCQDAFDIWGQGTMVSVSS
VL: QSPSSLSASVGDRVTITCRASQSIRTYLNWYQQKPGKDPELLIYAATSLQSGVPSRFTGSGSGTDFTLTISSLQPEDFATYYCQQSYSAPVFTFGQGTKLEIK
notes: also called B2-30_HC; B2-30_LC

Tests used:
[1] = biological target: T1, full extracellular domain (ECD) of LILRB2 fused to Fc fragment of mouse IgG2a (human; mouse, UniProt Q8N423 22-460); experiment: ELISA, coated human LILRB2 ECD-mIgG2a Fc [panel A]
T1 construct: extracellular domain; also called B2-ECD; wildtype B2-ECD; not shown: Fc fragment of mouse IgG2a
Excerpt: FIGS. 19A-B. ELISA binding measurement of antibodies to human and non-human primate (cynomolgus monkey, cyno) LILRB2 recombinantly produced in HEK293 cells. (FIG. 19A) ELISA binding to human LILRB2. (FIG. 19B) ELISA binding to cyno-LILRB2. The fusion proteins of the extracellular domain (ECD) of human LILRB2 or NHP-LILRB2 with Fe of mouse IgG2a were used to coat ELISA plates and antibodies were titrated in different concentrations as indicated in the graph.

[2] = biological target: T2, LILRB2 chimeric receptor on LILRB2 reporter cells (extracellular domain of LILRB2 fused with … (UniProt Q8N423 22-460)); experiment: flow cytometry, LILRB2 reporter cells
T2 construct: extracellular domain;domain: transmembrane/intracellular domains; associates with DAP12; also called LILRB2-expressing reporter cells
Excerpt: FIGS. 1A-C. Screening specific monoclonal antibodies for LILRB2. […] Binding of monoclonal antibodies was screened using flow cytometer on LILRB2 reporter cells. Bound antibodies were detected with Allophycocyanin (APC)-labeled goat anti-human IgG secondary antibody. (FIG. 1B) Quantification of binding ability of monoclonal antibodies to LILRB2 reporter cells.
Screening specific monoclonal antibodies for LILRB2. The inventors employed a stable reporter cell system to detect the binding ability of selected monoclonal antibodies to LILRB2. In this chimeric receptor reporter system, the extracellular domain (ECD) of LILRB2 is fused with transmembrane/intracellular domains of PILRb that associates with the adaptor protein DAP12 containing an immunoreceptor tyrosine-based activation motif. 27 monoclonal antibodies were screened. The LILRB2 reporter cells were incubated with selected monoclonal antibody, then labeled with (APC) goat anti-human IgG secondary antibody. […] The inventors generated LILRBAs and LILRBs reporters stably transduced with each receptor's extracellular domain (ECD).

LILRB2-His antigen = biological target: T3, LILRB2-His antigen (UniProt Q8N423 22-460, limits assumed); experiment: indirect ELISA, coated LILRB2-His
T3 construct: Coated on ELISA plates; also used for phage panning; also called LILRB2 antigen; not shown: His tag
Method: ELISA binding EC of LILRB2 antibodies. The ELISA binding EC₅₀ of these 24 antibodies were measured by indirect ELISA. […] After incubation, HRP-conjugated goat anti-human Fc secondary antibody was incubated with the plates. The TMB substrate was added for color development and measurement of absorbance at 450 nm.

Binder	binding result [1]	% of cells anti-hIgG APC+ [2] [%]	EC50 (LILRB2-His antigen) [nM]
B1	binds		
B2	binds		
B3	binds		
B4	binds		
B5	binds		
B6		1.69	
B7		0.14	1.6
B8		0.58	0.787
B9		0.7	1.76
B10		0.09	0.608
B11		0.28	3.79
B12		1.23	5.15
B13		3.74	1.97
B14		0.19	0.348
B15		0.47	2.44
B16		0.12	1.02
B17		1.1	379
B18		4.92	1.19

Source: US20230068663A1 (University of Texas, published 2023)
